Data taken from patent publication US20150203577A1 (Chugai, published 2015).

Experiments:
mouse FcγRII [1] = biological target: T1, mouse FcγRII (mouse, UniProt P08101 30-210); test: SPR (Biacore), KD of H237-mIgG1/MRAL-k0 (same run) / KD of variant
T1 construct: Extracellular domain with C-terminal His tag, made in FreeStyle 293 cells; also called mFcγRII; mFcgRII
T1 sequence: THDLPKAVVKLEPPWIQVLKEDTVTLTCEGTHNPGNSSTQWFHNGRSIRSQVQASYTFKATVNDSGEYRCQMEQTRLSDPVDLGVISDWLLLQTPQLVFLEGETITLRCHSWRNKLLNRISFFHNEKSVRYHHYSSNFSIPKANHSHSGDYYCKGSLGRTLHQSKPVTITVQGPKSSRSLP
Protocol: (§1) Each altered antibody was analyzed for its interaction with each Fcγ receptor prepared above using Biacore T100 (GE Healthcare Japan Corp.), Biacore T200 (GE Healthcare Japan Corp.), Biacore A100, or Biacore 4000. The running buffer used was HBS-EP+ (GE Healthcare Japan Corp.). The assay temperature was set to 25° C. The sensor chips used were chips prepared by immobilizing Protein L (ACTIGEN or BioVision) onto Series S Sensor Chip CM5 (GE Healthcare Japan Corp.) or Series S Sensor Chip CM4 (GE Healthcare Japan Corp.) by the amine coupling method.
(§2) In order to calculate the KD value of each altered antibody for FcγR, kinetic analysis was conducted according to the following method: first, the antibody of interest was captured onto any of these chips and allowed to interact with mFcγR diluted with a running buffer. For the obtained sensorgram, the assay results were globally fit into the 1:1 Langmuir binding model using Biacore Evaluation Software to calculate an association rate constant ka (L/mol/s) and a dissociation rate constant kd (1/s). From these values, the dissociation constant KD (mol/L) was calculated.

mouse FcγRIII [2] = biological target: T2, mouse FcγRIII (mouse, UniProt P08508 31-215); test: as above
T2 construct: Extracellular domain with C-terminal His tag, made in FreeStyle 293 cells; also called mFcγRIII; mFcgRIII
T2 chain: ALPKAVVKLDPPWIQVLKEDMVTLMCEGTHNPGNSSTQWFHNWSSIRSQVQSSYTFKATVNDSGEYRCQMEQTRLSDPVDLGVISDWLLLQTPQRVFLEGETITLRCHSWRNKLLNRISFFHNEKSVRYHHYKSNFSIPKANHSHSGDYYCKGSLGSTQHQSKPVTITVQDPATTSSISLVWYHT
Protocol: as §1, §2

mouse FcγRII [3] = biological target: T1, mouse FcγRII; test: SPR (Biacore), antibody captured on Protein L
Protocol: as §1, §2

mouse FcγRIII [4] = biological target: T2, mouse FcγRIII; test: SPR (Biacore), antibody captured on Protein L
Protocol: as §1, §2

| Binder | relative mFcγRII-binding activity (mIgG1 = 1) (mouse FcγRII [1]) [fold] | relative mFcγRIII-binding activity (mIgG1 = 1) (mouse FcγRIII [2]) [fold] | Kd (mouse FcγRII [3]) [nM] | Kd (mouse FcγRIII [4]) [nM] |
| --- | --- | --- | --- | --- |
| H237-MB617/MRAL-k0 (antibody, mouse IgG1, kappa, copies: 2 + 2) heavy: QVQLQESGPGLVKPSETLSLTCAVSGHSISHDHAWSWVRQPPGEGLEWIGFISYSGITNYNPSLQGRVTISRDNSKNTLYLQMNSLRAEDTAVYYCARSLARTTAMDYWGEGTLVTVSSAKTTPPSVYPLAPGSAAQTNSMVTLGCLVKGYFPEPVTVTWNSGSLSSGVHTFPAVLQSDLYTLSSSVTVPSSTWPSETVTCNVAHPASSTKVDKKIVPRDCGCKPCICTVPEESDVDIFPPKPKDVLTITLTPKVTCVVVDISKDDPEVQFSWFVDDVEVHTAQTQPREEQFNSTFRSVSELPIMHQDWLNGKEFKCRVNSAAFPAPIEKTISKTKGRPKAPQVYTIPPPKEQMAKDKVSLTCMITDFFPEDITVEWQWNGQPAENYKNTQPIMDTDGSYFVYSKLNVQKSNWEAGNTFTCSVLHEGLHNHHTEKSLSHSPGK light: not shown | 0.84 | 0.15 | 255 | 2100 |
| H237-MB641/MRAL-k0 (antibody, mouse IgG1, kappa, copies: 2 + 2) heavy: QVQLQESGPGLVKPSETLSLTCAVSGHSISHDHAWSWVRQPPGEGLEWIGFISYSGITNYNPSLQGRVTISRDNSKNTLYLQMNSLRAEDTAVYYCARSLARTTAMDYWGEGTLVTVSSAKTTPPSVYPLAPGSAAQTNSMVTLGCLVKGYFPEPVTVTWNSGSLSSGVHTFPAVLQSDLYTLSSSVTVPSSTWPSETVTCNVAHPASSTKVDKKIVPRDCGCKPCICEAYEVEYVFIFPPKPKDVLTITLTPKVTCVVVDISKDDPEVQFSWFVDDVEVHTAQTQPREEQFNSTFRSVSELPIMHQDWLNGKEFKCRVNSAAFPAPIEKTISKTKGRPKAPQVYTIPPPKEQMAKDKVSLTCMITDFFPEDITVEWQWNGQPAENYKNTQPIMDTDGSYFVYSKLNVQKSNWEAGNTFTCSVLHEGLHNHHTEKSLSHSPGK light: not shown | 1.62 | 0.15 | 143 | 2100 |
| H237-MB626/MRAL-k0 (antibody, mouse IgG1, kappa, copies: 2 + 2) heavy: QVQLQESGPGLVKPSETLSLTCAVSGHSISHDHAWSWVRQPPGEGLEWIGFISYSGITNYNPSLQGRVTISRDNSKNTLYLQMNSLRAEDTAVYYCARSLARTTAMDYWGEGTLVTVSSAKTTPPSVYPLAPGSAAQTNSMVTLGCLVKGYFPEPVTVTWNSGSLSSGVHTFPAVLQSDLYTLSSSVTVPSSTWPSETVTCNVAHPASSTKVDKKIVPRDCGCKPCICETYEVELVFIFPPKPKDVLTITLTPKVTCVVVDISKDDPEVQFSWFVDDVEVHTAQTQPREEQFNSTFRSVSELPIMHQDWLNGKEFKCRVNSAAFPAPIEKTISKTKGRPKAPQVYTIPPPKEQMAKDKVSLTCMITDFFPEDITVEWQWNGQPAENYKNTQPIMDTDGSYFVYSKLNVQKSNWEAGNTFTCSVLHEGLHNHHTEKSLSHSPGK light: not shown | 0.89 | 0.14 | 261 | 2370 |
| H237-MB624/MRAL-k0 (antibody, mouse IgG1, kappa, copies: 2 + 2) heavy: QVQLQESGPGLVKPSETLSLTCAVSGHSISHDHAWSWVRQPPGEGLEWIGFISYSGITNYNPSLQGRVTISRDNSKNTLYLQMNSLRAEDTAVYYCARSLARTTAMDYWGEGTLVTVSSAKTTPPSVYPLAPGSAAQTNSMVTLGCLVKGYFPEPVTVTWNSGSLSSGVHTFPAVLQSDLYTLSSSVTVPSSTWPSETVTCNVAHPASSTKVDKKIVPRDCGCKPCICEDYEVELVFIFPPKPKDVLTITLTPKVTCVVVDISKDDPEVQFSWFVDDVEVHTAQTQPREEQFNSTFRSVSELPIMHQDWLNGKEFKCRVNSAAFPAPIEKTISKTKGRPKAPQVYTIPPPKEQMAKDKVSLTCMITDFFPEDITVEWQWNGQPAENYKNTQPIMDTDGSYFVYSKLNVQKSNWEAGNTFTCSVLHEGLHNHHTEKSLSHSPGK light: not shown | 0.88 | 0.11 | 263 | 2870 |
| H237-MB623/MRAL-k0 (antibody, mouse IgG1, kappa, copies: 2 + 2) heavy: QVQLQESGPGLVKPSETLSLTCAVSGHSISHDHAWSWVRQPPGEGLEWIGFISYSGITNYNPSLQGRVTISRDNSKNTLYLQMNSLRAEDTAVYYCARSLARTTAMDYWGEGTLVTVSSAKTTPPSVYPLAPGSAAQTNSMVTLGCLVKGYFPEPVTVTWNSGSLSSGVHTFPAVLQSDLYTLSSSVTVPSSTWPSETVTCNVAHPASSTKVDKKIVPRDCGCKPCICEAYEVELVFIFPPKPKDVLTITLTPKVTCVVVDISKDDPEVQFSWFVDDVEVHTAQTQPREEQFNSTFRSVSELPIMHQDWLNGKEFKCRVNSAAFPAPIEKTISKTKGRPKAPQVYTIPPPKEQMAKDKVSLTCMITDFFPEDITVEWQWNGQPAENYKNTQPIMDTDGSYFVYSKLNVQKSNWEAGNTFTCSVLHEGLHNHHTEKSLSHSPGK light: not shown | 0.59 | 0.1 | 395 | 3170 |
| H237-MB640/MRAL-k0 (antibody, mouse IgG1, kappa, copies: 2 + 2) heavy: QVQLQESGPGLVKPSETLSLTCAVSGHSISHDHAWSWVRQPPGEGLEWIGFISYSGITNYNPSLQGRVTISRDNSKNTLYLQMNSLRAEDTAVYYCARSLARTTAMDYWGEGTLVTVSSAKTTPPSVYPLAPGSAAQTNSMVTLGCLVKGYFPEPVTVTWNSGSLSSGVHTFPAVLQSDLYTLSSSVTVPSSTWPSETVTCNVAHPASSTKVDKKIVPRDCGCKPCICQPNEVENVFIFPPKPKDVLTITLTPKVTCVVVDISKDDPEVQFSWFVDDVEVHTAQTQPREEQFNSTFRSVSELPIMHQDWLNGKEFKCRVNSAAFPAPIEKTISKTKGRPKAPQVYTIPPPKEQMAKDKVSLTCMITDFFPEDITVEWQWNGQPAENYKNTQPIMDTDGSYFVYSKLNVQKSNWEAGNTFTCSVLHEGLHNHHTEKSLSHSPGK light: not shown | 1.17 | 0.21 | 197 | 1550 |
| H237-MB638/MRAL-k0 (antibody, 'T2301' read as T230I; copies: 2 + 2) heavy: QVQLQESGPGLVKPSETLSLTCAVSGHSISHDHAWSWVRQPPGEGLEWIGFISYSGITNYNPSLQGRVTISRDNSKNTLYLQMNSLRAEDTAVYYCARSLARTTAMDYWGEGTLVTVSSAKTTPPSVYPLAPGSAAQTNSMVTLGCLVKGYFPEPVTVTWNSGSLSSGVHTFPAVLQSDLYTLSSSVTVPSSTWPSETVTCNVAHPASSTKVDKKIVPRDCGCKPCICIPAEVENVFIFPPKPKDVLTITLTPKVTCVVVDISKDDPEVQFSWFVDDVEVHTAQTQPREEQFNSTFRSVSELPIMHQDWLNGKEFKCRVNSAAFPAPIEKTISKTKGRPKAPQVYTIPPPKEQMAKDKVSLTCMITDFFPEDITVEWQWNGQPAENYKNTQPIMDTDGSYFVYSKLNVQKSNWEAGNTFTCSVLHEGLHNHHTEKSLSHSPGK light: not shown | 0.83 | 0.1 | 280 | 3380 |
| H237-MB625/MRAL-k0 (antibody, mouse IgG1, kappa, copies: 2 + 2) heavy: QVQLQESGPGLVKPSETLSLTCAVSGHSISHDHAWSWVRQPPGEGLEWIGFISYSGITNYNPSLQGRVTISRDNSKNTLYLQMNSLRAEDTAVYYCARSLARTTAMDYWGEGTLVTVSSAKTTPPSVYPLAPGSAAQTNSMVTLGCLVKGYFPEPVTVTWNSGSLSSGVHTFPAVLQSDLYTLSSSVTVPSSTWPSETVTCNVAHPASSTKVDKKIVPRDCGCKPCICENYEVELVFIFPPKPKDVLTITLTPKVTCVVVDISKDDPEVQFSWFVDDVEVHTAQTQPREEQFNSTFRSVSELPIMHQDWLNGKEFKCRVNSAAFPAPIEKTISKTKGRPKAPQVYTIPPPKEQMAKDKVSLTCMITDFFPEDITVEWQWNGQPAENYKNTQPIMDTDGSYFVYSKLNVQKSNWEAGNTFTCSVLHEGLHNHHTEKSLSHSPGK light: not shown | 0.74 | 0.14 | 312 | 2310 |
| H237-MB618/MRAL-k0 (antibody, mouse IgG1, kappa, copies: 2 + 2) heavy: QVQLQESGPGLVKPSETLSLTCAVSGHSISHDHAWSWVRQPPGEGLEWIGFISYSGITNYNPSLQGRVTISRDNSKNTLYLQMNSLRAEDTAVYYCARSLARTTAMDYWGEGTLVTVSSAKTTPPSVYPLAPGSAAQTNSMVTLGCLVKGYFPEPVTVTWNSGSLSSGVHTFPAVLQSDLYTLSSSVTVPSSTWPSETVTCNVAHPASSTKVDKKIVPRDCGCKPCICTVPEEDDVFIFPPKPKDVLTITLTPKVTCVVVDISKDDPEVQFSWFVDDVEVHTAQTQPREEQFNSTFRSVSELPIMHQDWLNGKEFKCRVNSAAFPAPIEKTISKTKGRPKAPQVYTIPPPKEQMAKDKVSLTCMITDFFPEDITVEWQWNGQPAENYKNTQPIMDTDGSYFVYSKLNVQKSNWEAGNTFTCSVLHEGLHNHHTEKSLSHSPGK light: not shown | 1.63 | 0.13 | 156 | 2730 |
